Reference: the DeepSol protein solubility set

Assay: soluble on expression in E. coli; label from the status in PepcDB or PDB records

Sequence | soluble on expression in E. coli
MMSRVTCSHMSFQTAIRPAESVDIADIRRVARATWHTVYDDILGAETVEEHLKEGYTPPLLEQMIELDEVGLFVSTADDDVVAYMSCGMTDATGFGDLDLYVHPDYWGEGIGTELLHRGEQHLHDLSVRKIRDEVLAENEVGNAFYRAHFEKVGQRTAKVGGQEHPVNVYERRL | not soluble
MRDEDFCCAVCLDFFVEPCIIECGHSYCRFCIESHLNINEKCPLCRAHTGNPIRNRQLESLTMSYVSSRNISTEYYERMKSYQKKLLLQNRALVIIWTELNKRPGHSTELCNLVRNVQDEELKSEIMWQVKQQVGVGLEHTGDLQEENVTIRLKNSSSQQ | not soluble
MEADGLGCAVCVLTGASRGFGRALAPQLARLLSPGSVMLVSARSESMLRQLKEELGAQQPDLKVVLAAADLGTEAGVQRLLSAVRELPRPEGLQRLLLINNAATLGDVSKGFLNVNDLAEVNNYWALNLTSMLCLTSGTLNAFQDSPGLSKTVVNISSLCALQPYKGWGLYCAGKAARDMLYQVLAAEEPSVRVLSYAPGPLDNDMQQLARETSKDPELRSKLQKLKSDGALVDCGTSAQKLLGLLQKDTFQSGAHVDFYD | soluble
SLKCYTCKEPMTSASCRTITRCKPEDTACMTTLVTVEAEYPFNQSPVVTRSCSSSCVATDPDSIGAAHLIFCCFRDLCNSEL | soluble
GMTAVFRNTVLVRFKHCDAAGIVFYPRYFEMLNDFIEDWFAQALDWPFDAMHGAGQAGVPTADLHCRFVAPSRLGETLTRELRVVKLGQSSFTVQVRFMGPDSGLRLEVTQRLVCVDTDKIAPRPLPDPVRQAMATYVDETLAATGSPGL | soluble
MGSSHHHHHHSSGLVPRGSHMNAPIETDVLILGGGPVGMALALDLAHRQVGHLVVEQTDGTITHPRVGTIGPRSMELFRRWGVAKQIRTAGWPGDHPLDAAWVTRVGGHEVYRIPLGTADTRATPEHTPEPDAICPQHWLAPLLAEAVGERLRTRSRLDSFEQRDDHVRATITDLRTGATRAVHARYLVACDGASSPTRKALGIDAPPRHRTQVFRNILFRAPELRSLLGERAALFFFLMLSSSLRFPLRALDGRGLYRLTVGVDDASKSTMDSFELVRRAVAFDTEIEVLSDSEWHLTHRVADSFSAGRVFLTGDAAHTLSPSGGFGMNTGIGSAADLGWKLAATLRGWAGPGLLATYEEERRPVAITSLEEANVNLRRTMDRELPPGLHDDGPRGERIRAAVAEKLERSGARREFDAPGIHFGHTYRSSIVCGEPETEVATGGWRPSARPGARAPHAWLTPTTSTLDLFGRGFVLLSFGTTDGVEAVTRAFADRHVPLETVTCHAPEIHALYERAHVLVRPDGHVAWRGDHLPAELGGLVDKVRGAA | soluble
MGSDKIHHHHHHLNILVTNDDGIMSPGIILLAEALSEDHEVLVVAPDVERSATGHAITIRTPLWAKEVKVGNKNIGYAINGTPADCVKLGLLAISDRKIDLVISGVNKGQNMGIDVLYSGTVSGALEGAVTDTPSIAVSSSDWSNPEYETAARFMVNFLKIYDVSKMPDFTALNINVPSIKYEELKGWKVTRQSRRRYKDYFEKRKDPYGNNYYWIFGEVVEDECSTDCDFNAVKSNFVSITPLHAIMTDKKYFDELKEISEGWSE | not soluble
MGSDKIHHHHHHYAVQPKDDKKENEALQTSTEEHLPLLTINGTNASSSFIVNSEALLGKEITITAPNGFTVTPTVIAANSGKQKVKVTLNSTKRLTEGKIILRSGDVRSYLKVKGYGTALPVKDIAASPAYKKGNDKEFTKAFTPNSKGYTIEFKIKTDDSEKSFYPYFVNEKGYGFKAYITSNEIGLFNAYKKEITNPATNGKAGGKGKFYNNDGQAHIYRFAITPDNRAFIYRDGIPVDSVRIIDYAPQPNFAEKVGKPVENLLKNPNFEGEFDINPETKLVSRVEGWDVVISDRWNSEQQILPEEIDNNQDLDNHVFEIRPYKWAAGWSDGILMQVVDVVPNENYTLSALLKGGIAKKEGKLTGKMIIEEVQDPEKKVITEIASDNWETYSMDYTTSAECNQIRVSFTVGRGGWGNDIGAVRVDNAKLTGTSRTYSPKFGFIDNTADVEYFTIDESGAYAPAQPEITINIED | not soluble
MSHHHHHHAGIFTFEEPVTHVSESIGIMEVKVLRTSGARGNVIVPYKTIEGTARGGGEDFEDTCGELEFQNDEIVKTISVKVIDDEEYEKNKTFFLEIGEPRLVEMSEKKGGFTITEEYDDKQPLTSKEEEERRIAEMGRPILGEHTKLEVIIEESYEFKSTVD | soluble
MGSDKIHHHHHHMRVLGLILAGGKSDRLWPLTKVRASAAVPVFGKYRAIDFTLSNMVNSGIRKVGILTQYNPRSLMDHLGSGKEWDLDRKSGGLFILQPYVGPNREVWYRGTADAIFQNMTILRRGEEDHVLIGSGDHIYKMIYRDLFNYHLKKGADITLVVKELDETYNLSEYGIVQLDDDMRVVEIEEKPAHPKGNIAFLGVYFMNKELLKELLYATVPQGKYDLLLDIVIPNLDRLKVYAYRFDGYWRNVKKGIKEYYRINMDILKKEVRDELFYRNGKVYTKLKDLPPPKFTTTAVVENSLIADGSIVSGTVRNSVIFRNVRIKVGAVVENSIIMENTVVEEGAVLRNVILDKNCIVREGRVIEGDTELPVFEKRAVL | not soluble
VTDILREIGMIARALDSISNIEFKELSLTRGQYLYLVRVCENPGIIQEKIAELIKVDRTTAARAIKRLEEQGFIYRQEDASNKKIKRIYATEKGKNVYPIIVRENQHSNQVALQGLSEVEISQLADYLVRMRKNVSEDWEFVKKGNTRNY | soluble
MFDTLTHGELLKKTAMEVEADIAGIHKQIEEISERNEWRVLQSYRKHKVSDTHFTPSTGYGYDDIGRDTLESIYADVFGGEAGLVRPQIISGTHAISIALFGVLRPGDELLYITGKPYDTLEEIVGVRGGENAGSLKDFQIGYNAVDLTKDGKIDYDAVAAAINPKTKVIGIQRSKGYANRPSFLISEIKEMIRFVKEINENLIVFVDNCYGEFVEELEPCHVGADLMAGSLIKNPGGGLAKTGGYLVGKAKWIEACSYRMTSPGIGREAGASLYSLQEMYQGFFLAPHVVSQSLKGAVFTARFLEKLGFTSNPKWDAKRTDLIQSVEFSDGEKMIAFCQAIQFASPIDAHVTPYPAYMPGYEDDVIMAAGTFIQGASIELSADGPIRPPYVAYVQGGLTYSHVKNAICSAVDSLMQKQLILEHHHHHH | soluble
ILQTTVDGNSTAISNLKSDISSNGLAITDLQDRVKSLESTASHGLSFSPPLSVADGVVSLDMDPYFCSQRVSLTSYSAEAQLMQFRWMARGTNGSSDTIDMTVNAHCHGRRTDYMMSSTGNLTVTSNVVLLTFDLSDITHIPSDLARLVPSAGFQAASFPVDVSFTRDSATHAYQAYGVYSSSRVFTITFPTGGDGTANIRSLTVRTGIDT | soluble
MKRIGVFTSGGDAPGMNAAIRAVVRQAHALGVEVIGIRRGYAGMIQGEMVPLGVRDVANIIQRGGTILLTARSQEFLTEEGRAKAYAKLQAAGIEGLVAIGGDGTFRGALCLVEEHGMPVVGVPGTIDNDLYGTDYTIGFDTAVNTALEAIDRIRDTAASHERVFFIEVMGRHAGFIALDVGLAGGAEVIAVPEEPVDPKAVAEVLEASQRRGKKSSIVVVAEGAYPGGAAGLLAAIREHLQVEARVTVLGHIQRGGSPTAKDRILASRLGAAAVEALVGGASGVMVGEVEGEVDLTPLKEAVERRKDINRALLRLSQVLAL | soluble
MKPLLLSRRTHQKPGNYASGRGFPSSTRYIEDVQWLLKEFEPFVRVSADLPFVKARDIALIRSELEKKKPASLEVCLLEHHHHHH | not soluble
MVRVRPSCQVAQSDCGLACVHMLIQSFGISASLRKMRVTYAPGRDGLSLRALTQILSDFGLNSKVVKCSYSNLSRVPLPAIIAWEPAHYVVLEKRLGDSWRIVDPSSGRRWCSKKEIEANFRSFCVTGARGNTKVSEGQVSDDPSWKSLAVLLAGK | not soluble
SNAMKILLIGASGTLGSAVKERLEKKAEVITAGRHSGDVTVDITNIDSIKKMYEQVGKVDAIVSATGSATFSPLTELTPEKNAVTISSKLGGQINLVLLGIDSLNDKGSFTLTTGIMMEDPIVQGASAAMANGAVTAFAKSAAIEMPRGIRINTVSPNVLEESWDKLEPFFEGFLPVPAAKVARAFEKSVFGAQTGESYQVY | soluble
